Test results taken from the supplement of paper PMC9732359.
± gives the uncertainty stated by the source.

test: protein stability index of a GFP-peptide fusion (yeast GPS) (PSI 1-4); higher = more stable; sorted into four equal gates, so the index is relative within each strain; settings: san1∆
Summary of the method: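 Mid-log yeast cultures in leucine-free medium, carrying a pooled plasmid library, were sorted into four equal gates by their GFP/Cherry fluorescence ratio. Each plasmid expressed Cherry along with GFP fused upstream of a tiled 17-residue yeast protein peptide. Plasmids recovered from each gate were PCR-amplified and Illumina-sequenced, with reads assigned to strains by barcodes. The protein stability index was obtained by summing each gate's read frequency weighted by its gate number.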

QRGKWNLKYLDNSNVMT [RGR1] showed a protein stability index of 2.58 ± 0.077.

same assay, conditions: ubr1∆

In order of falling protein stability index:
1. QDLSRNTLGKGQNCLDI [SNU114]  3.61 ± 0.15
2. QQIQEQVLKCKESWDPN [YGR119C/NUP57]  3.52 ± 0.22
3. QANIQLYSIREDYELSP [PRE1]  3.46 ± 0.11
4. QENKNIDDENITKLNKE [SRB4]  3.46 ± 0.057
5. QIYGFEGLNQRNQVQTE [YGR119C/NUP57]  3.39 ± 0.18
6. QDEAELVEEKTPGLTFN [RPC82]  3.35 ± 0.12
7. QMMSKGIGALFTQQELQ [RPC34]  3.34 ± 0.08
8. QEETVVEQTAEVTIEDA [RPS12]  3.33 ± 0.056
9. QNYRLDGRSFDQFRDVE [RRP45]  3.32 ± 0.092
10. PVSVSRIARALKQEGAA [RPL18A]  3.3 ± 0.057
11. QLLQRLNDMNTEISGLK [SMC3]  3.3 ± 0.058
12. QQKLNTRMQRGHRADVG [REC8]  3.3 ± 0.088
13. QFEVSDDEKNDKQARKQ [SNF2]  3.29 ± 0.077
14. QNIKAPSVKRQKMAELE [PRP8]  3.29 ± 0.077
15. QEIFDANVQRLKEYQSK [RPL13A]  3.27 ± 0.093
16. QLSQDEHSQVEQTCVKL [SRP72]  3.25 ± 0.084
17. QKVNAVDSTFQKVSENF [SMC3]  3.21 ± 0.04
18. QLAVANEIIRSLSDEVM [SIR4]  3.21 ± 0.087
19. QMTWRQWLNNALKRSYG [POP8]  3.2 ± 0.079
20. QPPTNVQPTIGQLPQLP [SNF5]  3.15 ± 0.043
21. QKMAKAKKQNRPLPQWI [RPL39]  3.14 ± 0.059
22. QLYHLEQQKEELTDKLS [SMC1]  3.14 ± 0.11
23. QESSSTLSTHSTTTSVN [SIN4]  3.132 ± 0.029
24. QLVTREAQIKDWVENEL [FAS2]  3.11 ± 0.064
25. QQQLYGGNNNNNSTGIA [SWI1]  3.11 ± 0.045
26. QFTLYDRELNEVINQME [SMC3]  3.08 ± 0.046
27. QPIEKNGDKMPLKFKLG [YJR042W/NUP85]  3.08 ± 0.042
28. QNNNTLGGGGLFGQSQQ [YGR119C/NUP57]  3.07 ± 0.087
29. QEDELDEGTALSRLGLK [RPB10]  3.06 ± 0.079
30. QKDQDGRIPLHWSVSFQ [NAS6]  3.06 ± 0.053
31. QEQGSFQHILRLLNTNV [RPS18A]  3.03 ± 0.035
32. QGPVKNTQLHGPSATDP [RGR1]  3.02 ± 0.035
33. QKVQGESHIDSRNNTLN [SIR4]  3.01 ± 0.043
34. QKQLPQKTRVKLLFDHD [ESC2]  3 ± 0.039
35. QAPSELELQVAKTFIDL [RPS7B]  2.99 ± 0.046
36. QFEWHQNSLLTNTHPNF [SNF2]  2.99 ± 0.047
37. QNSKEKNGLGLNFSTTA [MED2]  2.99 ± 0.089
38. PTITLDDVYRPAAESKI [SNF5]  2.98 ± 0.068
39. QHEQGTFEKHDRVEDIC [RRI2]  2.97 ± 0.13
40. QELKLTCVAKKGIAKEH [RPB3]  2.96 ± 0.095
41. QPKGVILYGPPGTGKTL [RPT6]  2.95 ± 0.21
42. QNDELKFQGVLESEAQK [RPC34]  2.93 ± 0.075
43. QPQPQPQQQQQHLQFNG [YDL088C/ASM4]  2.919 ± 0.024
44. PTNCPLRQFKTCPVEVI [BRR2]  2.9 ± 0.066
45. PTSPAYSPTSPSYSPTS [RPO21]  2.9 ± 0.035
46. QDVIKVLYQSNATHDED [SWP82]  2.881 ± 0.028
47. QMSLEANVVDITNDWEQ [YJR042W/NUP85]  2.87 ± 0.058
48. QMSDKHATVVPPEEFSN [SRB7]  2.86 ± 0.047
49. QLKDMQTIEMITQIVEK [SRB8]  2.85 ± 0.056
50. QGGNNELGTAVGKLFRV [RPL30]  2.84 ± 0.076
51. QNPMRDLKIEKLVLNIS [RPL11A]  2.84 ± 0.11
52. QETEGTNRHTLALETVL [SIR3]  2.83 ± 0.041
53. QQREAVRQLYKGKKYQP [RPL35A]  2.83 ± 0.091
54. QLDFTEFDEQYGTRPLV [SNF2]  2.81 ± 0.032
55. QISIIDIWSISKKRQAE [YML031W/NDC1]  2.79 ± 0.039
56. QQYVAAGDLRALDTVTN [FAS1]  2.79 ± 0.13
57. QEQITLYDHWDKYHEQW [SSN8]  2.76 ± 0.046
58. QALRVLRLKPGRKYTTL [RPL16B]  2.73 ± 0.048
59. PYAVLSQFYELRDREDW [YJR042W/NUP85]  2.71 ± 0.18
60. QGGVLPNIHQNLLPKKS [HTA1]  2.71 ± 0.057
61. PYMPYYYYYHPMNAPTP [DSN1]  2.69 ± 0.032
62. QQPHYIQRTRERKKSIG [DSN1]  2.69 ± 0.051
63. QQQQQQNGQQPPTTSNL [YML103C/NUP188]  2.661 ± 0.02
64. PVRALIVQAKEPNLAAQ [ECM29]  2.64 ± 0.059
65. QDNKKIYVHVRRSTPFS [ESC2]  2.64 ± 0.04
66. PTVSLTINLDRFMKGRR [RPC82]  2.63 ± 0.081
67. PTKTLTTKERKKSRLGN [PRP8]  2.62 ± 0.056
68. QAQLRIDDKTQNDELTM [DIS3]  2.62 ± 0.088
69. QDGGVTPYSNESGLVNA [RPO21]  2.6 ± 0.068
70. QQQQQNTNNNDTIATSA [GAL11]  2.603 ± 0.018
71. PTQITQYTQRLSKLEKA [SRP68]  2.48 ± 0.045
72. QKYNQIQKQIETIQADL [SMC2]  2.45 ± 0.031
73. QNNKPSFVFGQAAAKPS [YLR335W/NUP2]  2.45 ± 0.075
74. QILQGICKNCSAILLSE [RPO31]  2.43 ± 0.069
75. QFTSSLFKALKVILNER [RGR1]  2.42 ± 0.077
76. PTLPTNHNKTKLLKSLK [PRP8]  2.41 ± 0.057
77. QINIMPSLKAHFTEIKL [SIR3]  2.4 ± 0.045
78. PYNLNLFPNELYNVMGI [RPC31]  2.38 ± 0.12
79. QEKNFQTGIFVYQNNIT [RPB5]  2.38 ± 0.082
80. QESFINTMSAWVNMLLI [FAS2]  2.37 ± 0.066
81. QRETSGMIVISMENYHL [SRB8]  2.35 ± 0.033
82. QLLIIEKEWENAIRIGE [SRP72]  2.21 ± 0.044
83. QANSNLTLLERKWVIFI [NUT1]  2.19 ± 0.061
84. QQLAYDLSISALLGDKI [RPN9]  2.15 ± 0.064
85. QETASPLSQDELISLRK [YIL149C/MLP2]  2.13 ± 0.061
86. QIELSCNERVPLSVATE [SRP72]  2.12 ± 0.04
87. PVSTASYRLLPQINILQ [RPC40]  1.97 ± 0.051
88. PVVQVGIFIKILNDSLI [IRR1]  1.97 ± 0.038
89. QKETQKVTKIWSKESNY [PRP28]  1.95 ± 0.027
90. QRGKWNLKYLDNSNVMT [RGR1]  1.95 ± 0.073
91. QKSPKIRDPLTQTGLLQ [RPC82]  1.91 ± 0.046
92. QPASYHSVQETNKISPK [SSN2]  1.91 ± 0.069
93. QQLRTWKRQISYFLKLL [SRB8]  1.91 ± 0.039
94. PVYTAQWSATWIAMRRE [PRP8]  1.9 ± 0.067
95. QIEGPFLIIVPKSTLDN [ISW2]  1.75 ± 0.097
96. QDLPKINDKRANLMLVM [SRB4]  1.73 ± 0.063
97. QFELLSRRWRQRKNIQS [BRR2]  1.65 ± 0.044
98. QDDADPMVSVMKMDKSP [RPT2]  1.52 ± 0.073
99. PVVRAPTVKYNRKVRAG [RPL13A]  1.49 ± 0.11
100. QGSVTVGLRSNTHAVLV [PRE5]  1.29 ± 0.037
101. PVSCIIQNDEEYDTPAL [PRP8]  1.22 ± 0.086
102. PYLPKHYLVLLVAKFLY [YJR042W/NUP85]  1.21 ± 0.052
103. QQTAKKLIPKLYRYRFD [ECM29]  1.21 ± 0.087
